The values below come from paper PMC3234246.

Assay [1] addresses Nup358/RanBP2 cyclophilin domain (Nup358Cyp), human (human). Briefly: ITC; recombinant CypA or Nup358Cyp against recombinant CA^NTD, without cyclosporine; done as described in ref. 25.
In assay [2] the target is cyclophilin A (CypA), human (UniProt P62937). The description is as above.
For assay [3] the target is unchanged. Briefly: ITC. Background: In ITC the heat of successive injections is recorded.

cyclophilin A (CypA), human, sequence (P62937 whole entry): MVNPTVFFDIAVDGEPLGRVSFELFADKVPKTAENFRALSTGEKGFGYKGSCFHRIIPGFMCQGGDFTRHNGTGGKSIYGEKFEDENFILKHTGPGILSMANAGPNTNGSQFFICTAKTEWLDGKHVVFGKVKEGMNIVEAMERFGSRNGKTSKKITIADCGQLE

For orientation: Kd means the equilibrium constant for the complex coming apart. “HIV-1 NL4.3 capsid N-terminal domain (CA^NTD), wild type (domain or fragment)”: the results for the Kd in assay [1] and in assay [2] were 16 µM and 7 µM, respectively.
Consider “HIV-1 NL4.3 capsid N-terminal domain (CA^NTD), wild type N74D”, for which, in assay [3], the other: stoichiometry N came out at 0.8, the other: ΔH was -9.8 kcal/mol and the other: ΔS ((cal/mol)/deg) is -10.3.
Turning to “HIV-1 NL4.3 capsid N-terminal domain (CA^NTD), wild type P90A”, in assay [3], the Kd amounted to 46 µM, the other: stoichiometry N stood at 0.8, the other: ΔH is -2.84 kcal/mol and the other: ΔS ((cal/mol)/deg) turned out to be 9.8.
Turning to “HIV-1 capsid N-terminal domain (CA^NTD) mutant N57A (domain or fragment)”, the Kd in assay [1] amounted to 55 µM; in assay [2] it was 7 µM.
“HIV-1 capsid N-terminal domain (CA^NTD) mutant N74D (domain or fragment)”: in assay [1], the equilibrium dissociation constant (Kd) came out at 95 µM.
